Numbering of substitutions follows the chain as printed.
T1: rhesus CD11a (rhesus, UniProt H9Z8N3 26-1169)
T1 construct: whole, on cells; On rhesus peripheral blood lymphocytes or leukocytes; also called rhCD11a
T1 sequence: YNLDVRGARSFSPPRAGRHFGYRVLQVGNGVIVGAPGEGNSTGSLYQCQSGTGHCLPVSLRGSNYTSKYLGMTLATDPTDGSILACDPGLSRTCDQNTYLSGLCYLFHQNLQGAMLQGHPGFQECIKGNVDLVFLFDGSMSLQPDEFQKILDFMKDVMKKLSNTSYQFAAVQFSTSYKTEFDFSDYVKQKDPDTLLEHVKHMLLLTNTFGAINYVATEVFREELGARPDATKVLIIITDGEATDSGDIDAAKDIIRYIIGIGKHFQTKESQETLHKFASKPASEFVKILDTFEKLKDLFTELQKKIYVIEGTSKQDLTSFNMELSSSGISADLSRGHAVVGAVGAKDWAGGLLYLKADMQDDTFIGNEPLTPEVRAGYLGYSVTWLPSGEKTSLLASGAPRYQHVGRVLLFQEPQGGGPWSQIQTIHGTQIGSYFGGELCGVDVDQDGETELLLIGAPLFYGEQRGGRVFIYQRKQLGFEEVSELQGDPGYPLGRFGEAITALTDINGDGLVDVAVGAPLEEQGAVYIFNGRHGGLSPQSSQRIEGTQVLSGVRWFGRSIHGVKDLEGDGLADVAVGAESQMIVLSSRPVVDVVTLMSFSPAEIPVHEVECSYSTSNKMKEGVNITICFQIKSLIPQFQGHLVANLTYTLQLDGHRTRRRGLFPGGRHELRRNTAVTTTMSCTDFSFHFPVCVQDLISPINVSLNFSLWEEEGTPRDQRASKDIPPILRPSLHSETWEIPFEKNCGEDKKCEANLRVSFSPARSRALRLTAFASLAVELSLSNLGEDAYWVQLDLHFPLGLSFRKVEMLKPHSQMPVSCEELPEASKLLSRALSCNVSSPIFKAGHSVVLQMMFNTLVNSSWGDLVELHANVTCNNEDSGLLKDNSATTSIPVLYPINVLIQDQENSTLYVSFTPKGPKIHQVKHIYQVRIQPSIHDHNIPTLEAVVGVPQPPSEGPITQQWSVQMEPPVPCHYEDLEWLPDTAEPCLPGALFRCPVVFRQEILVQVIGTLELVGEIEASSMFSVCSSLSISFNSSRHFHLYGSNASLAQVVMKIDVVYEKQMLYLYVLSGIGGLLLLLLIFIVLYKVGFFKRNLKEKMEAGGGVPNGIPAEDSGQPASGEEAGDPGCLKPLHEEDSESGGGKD

B1: HuIgG1 mutant AsnL92Ala (antibody, V domains shown)
VH: EVQLVESGGGLVQPGGSLRLSCAASGYSFTGHWMNWVRQAPGKGLEWVGMIHPSDSETRYNQKFKDRFTISVDKSKNTLYLQMNSLRAEDTAVYYCARGIYFYGTTYFDYWGQGTLVTVSS
VL: DIQMTQSPSSLSASVGDRVTITCRASKTISKYLAWYQQKPGKAPKLLIYSGSTLQSGVPSRFSGSGSGTDFTLTISSLQPEDFATYYCQQHAEYPLTFGQGTKVEIKR
notes: HuIgG1 mutant, human IgG1; Kabat numbering
B2: HuIgG1 mutant HisH52Ser (antibody, V domains shown)
VH: B1 VH with H52S
VL: DIQMTQSPSSLSASVGDRVTITCRASKTISKYLAWYQQKPGKAPKLLIYSGSTLQSGVPSRFSGSGSGTDFTLTISSLQPEDFATYYCQQHNEYPLTFGQGTKVEIK
notes: as for B1
B3: HuIgG1 mutant LysH64Ala (antibody, V domains shown)
VH: B1 VH with K65A
VL: B2 VL
notes: as for B1
B4: HuIgG1 mutant SerL52Ala (antibody, V domains shown)
VH: B1 VH
VL: B1 VL with S52A, A92N
notes: as for B1
B5: HuIgG1 mutant LysH73Arg (antibody, V domains shown)
VH: B1 VH with K74R
VL: B2 VL
notes: as for B1
B6: HuIgG1 mutant ThrH100bAla (antibody, V domains shown)
VH: B1 VH with T106A
VL: B2 VL
notes: as for B1
B7: HuIgG1 mutant LysH73Ala (antibody, V domains shown)
VH: B1 VH with K74A
VL: B2 VL
notes: as for B1
B8: HuIgG1 mutant SerH28Ala (antibody, V domains shown)
VH: B1 VH with S28A
VL: B2 VL
notes: as for B1
B9: HuIgG1 mutant L1 (antibody, V domains shown)
VH: B1 VH
VL: B1 VL with K27A, T28A, S30A, K31A, A92N
notes: as for B1
B10: HuIgG1 mutant GlnH61Ala (antibody, V domains shown)
VH: B1 VH with Q62A
VL: B2 VL
notes: as for B1
B11: HuIgG1 mutant TyrH100cAla (antibody, V domains shown)
VH: B1 VH with Y107A
VL: B2 VL
notes: as for B1
B12: HuIgG1 mutant TyrH99Ala (antibody, V domains shown)
VH: B1 VH with Y103A
VL: B2 VL
notes: as for B1
B13: HuIgG1 mutant GlyH31Ala (antibody, V domains shown)
VH: B1 VH with G31A
VL: B2 VL
notes: as for B1
B14: HuIgG1 mutant HisH52Ala (antibody, V domains shown)
VH: B1 VH with H52A
VL: B2 VL
notes: as for B1
B15: HuIgG1 mutant L2 (antibody, V domains shown)
VH: B1 VH
VL: B1 VL with S50A, S52A, T53A, A92N
notes: as for B1
B16: HuIgG1 mutant TyrH97Ala (antibody, V domains shown)
VH: B1 VH with Y101A
VL: B2 VL
notes: as for B1
B17: HuIgG1 mutant H1 (antibody, V domains shown)
VH: B1 VH with S28A, T30A, H32A
VL: B2 VL
notes: as for B1
B18: HuIgG1 mutant LysH62Ala (antibody, V domains shown)
VH: B1 VH with K63A
VL: B2 VL
notes: as for B1
B19: HuIgG1 mutant ThrH100aAla (antibody, V domains shown)
VH: B1 VH with T105A
VL: B2 VL
notes: as for B1
B20: HuIgG1 mutant SerL50Ala (antibody, V domains shown)
VH: B1 VH
VL: B1 VL with S50A, A92N
notes: as for B1
B21: HuIgG1 mutant SerH53Ala (antibody, V domains shown)
VH: B1 VH with S54A
VL: B2 VL
notes: as for B1
B22: HuIgG1 mutant AspH65Ala (antibody, V domains shown)
VH: B1 VH with D66A
VL: B2 VL
notes: as for B1
B23: HuIgG1 mutant TyrL94Ala (antibody, V domains shown)
VH: B1 VH
VL: B1 VL with A92N, Y94A
notes: as for B1
B24: HuIgG1 mutant HisH32Ala (antibody, V domains shown)
VH: B1 VH with H32A
VL: B2 VL
notes: as for B1
B25: HuIgG1 mutant GluL93Ala (antibody, V domains shown)
VH: B1 VH
VL: B1 VL with A92N, E93A
notes: as for B1
B26: HuIgG1 mutant H2A2 (antibody, V domains shown)
VH: B1 VH with S54A, S56A
VL: B2 VL
notes: as for B1
B27: HuIgG1 mutant SerH55Asn (antibody, V domains shown)
VH: B1 VH with S56N
VL: B2 VL
notes: as for B1
B28: HuIgG1 mutant H2A3 (antibody, V domains shown)
VH: B1 VH with H52A, S56A
VL: B2 VL
notes: as for B1
B29: HuIgG1 mutant ThrL53Ala (antibody, V domains shown)
VH: B1 VH
VL: B1 VL with T53A, A92N
notes: as for B1
B30: HuIgG1 mutant H3B (antibody, V domains shown)
VH: B1 VH with T105A, T106A, Y107A
VL: B2 VL
notes: as for B1
B31: HuIgG1 mutant ArgH58Ala (antibody, V domains shown)
VH: B1 VH with R59A
VL: B2 VL
notes: as for B1

Each binder was assayed against T2, human CD11a (human, UniProt P20701 26-1170) (assay: FACScan, Jurkat cells).
T2 construct: whole, on cells; On Jurkat T-cells or human peripheral blood mononuclear cells, as part of LFA-1; also called CD11a on Jurkat cells; alpha subunit of LFA-1
Procedure: Aliquots of 10⁶ Jurkat T-cells were incubated with serial dilutions of humanized and control antibodies in PBS-0.1% BSA-10 mM sodium azide for 45 min at 4° C. The cells were washed and then incubated in fluorescein-conjugated goat anti-human F(ab′)₂ (Organon Teknika, Westchester, Pa.) for 45 min at 4° C. Cells were washed and analysed on a FACScan (Becton Dickinson, Mountain View, Calif.). 8×10³ cells were acquired by list mode and gated by forward light scatter versus side light scatter, thereby excluding dead cells and debris.
To determine which CDR residues were involved in binding to human CD11a an alanine-scan (Cunningham et al., Science 244:1081 (1989)) was performed on the CDR residues of HuIgG1. Each mutant was tested for binding to CD11a on Jurkat cells. In the light chain only CDR-L3 contributes to binding.

Var.EC50/HuIgG1 EC50 [ratio] | Binder
3.3 | B1
5 | B2
2.5 | B3
1.1 | B4
4.6 | B5
1.4 | B6
5.2 | B7
6.9 | B8
1.3 | B9
4.1 | B10
7.6 | B11
1.4 | B12
1.2 | B13
1.5 | B14
1.1 | B15
10.9 | B16

Var.EC50/HuIgG1 EC50 [ratio] | Binder
5.9 | B17
1.8 | B18
2.3 | B19
1.2 | B20
1.8 | B21
0.8 | B22
11.8 | B23
2.3 | B24
1.7 | B25
1.9 | B26
2.1 | B27
4.6 | B28
0.9 | B29
34.7 | B30
1.1 | B31

What follows are binders tested against T1, rhesus CD11a (assay: rhesus PBL binding).

Var.EC50/HuIgG1 EC50 [ratio] | Binder
3.3 | B1
1.2 | B3
5.5 | B5
1 | B9
5.3 | B10
2.4 | B13
0.7 | B14
4.9 | B18
2.7 | B20
0.7 | B21
1.1 | B22
2.9 | B25
1.1 | B26
1.3 | B28
0.7 | B29
3.3 | B31

Reference: patent US20040146507A1 (Genentech, published 2004)
